Here are results for four molecules from patent US20220175895A1 (ACADEMIA SINICA, published 2022).

For data set [1], the target named is Flag-VPS34 previously ubiquitinated in vitro by UBE3C, Q8NEB9.
The next data set deals with T1, Rubicon (UniProt Q92622 1-972, limits assumed).
T1 sequence (looked up): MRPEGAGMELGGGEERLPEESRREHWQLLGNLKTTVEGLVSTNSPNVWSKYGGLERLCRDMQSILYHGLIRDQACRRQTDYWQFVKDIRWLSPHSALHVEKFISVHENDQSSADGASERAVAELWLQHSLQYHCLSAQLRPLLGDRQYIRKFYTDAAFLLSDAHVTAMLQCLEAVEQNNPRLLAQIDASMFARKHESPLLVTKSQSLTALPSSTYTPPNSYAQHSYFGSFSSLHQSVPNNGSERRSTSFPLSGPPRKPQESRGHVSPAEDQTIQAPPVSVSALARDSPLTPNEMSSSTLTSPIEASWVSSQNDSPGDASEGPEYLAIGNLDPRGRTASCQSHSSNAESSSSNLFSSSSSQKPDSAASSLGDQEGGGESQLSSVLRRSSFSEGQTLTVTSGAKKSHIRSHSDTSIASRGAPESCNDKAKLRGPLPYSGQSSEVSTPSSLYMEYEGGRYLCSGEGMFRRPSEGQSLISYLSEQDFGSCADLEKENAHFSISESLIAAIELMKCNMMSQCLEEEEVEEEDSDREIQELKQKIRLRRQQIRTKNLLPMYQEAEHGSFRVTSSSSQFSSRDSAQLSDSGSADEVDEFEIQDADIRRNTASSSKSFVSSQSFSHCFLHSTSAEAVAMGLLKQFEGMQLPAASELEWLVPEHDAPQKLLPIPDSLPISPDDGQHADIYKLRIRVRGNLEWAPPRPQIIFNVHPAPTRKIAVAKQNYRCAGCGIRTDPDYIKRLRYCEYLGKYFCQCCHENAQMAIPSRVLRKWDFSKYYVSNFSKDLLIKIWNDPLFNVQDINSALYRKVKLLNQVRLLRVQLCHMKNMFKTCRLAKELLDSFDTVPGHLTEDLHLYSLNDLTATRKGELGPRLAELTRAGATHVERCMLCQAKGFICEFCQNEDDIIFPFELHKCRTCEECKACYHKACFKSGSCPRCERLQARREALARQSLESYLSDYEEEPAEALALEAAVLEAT
Description: immunoprecipitation in 293T cells transfected with Flag-TRABID, fed or starved 2 h (FIG. 2R).

The target in a further data set is T2, endogenous VPS34 (UniProt Q8NEB9 1-887).
T2 construct: also called vacuolar protein sorting 34; PI3 Kinase Class III
Description: co-immunoprecipitation from 293T cells (FIG. 2I).

Sequence of Flag-VPS34 previously ubiquitinated in vitro by UBE3C, Q8NEB9 (Q8NEB9 whole entry, looked up): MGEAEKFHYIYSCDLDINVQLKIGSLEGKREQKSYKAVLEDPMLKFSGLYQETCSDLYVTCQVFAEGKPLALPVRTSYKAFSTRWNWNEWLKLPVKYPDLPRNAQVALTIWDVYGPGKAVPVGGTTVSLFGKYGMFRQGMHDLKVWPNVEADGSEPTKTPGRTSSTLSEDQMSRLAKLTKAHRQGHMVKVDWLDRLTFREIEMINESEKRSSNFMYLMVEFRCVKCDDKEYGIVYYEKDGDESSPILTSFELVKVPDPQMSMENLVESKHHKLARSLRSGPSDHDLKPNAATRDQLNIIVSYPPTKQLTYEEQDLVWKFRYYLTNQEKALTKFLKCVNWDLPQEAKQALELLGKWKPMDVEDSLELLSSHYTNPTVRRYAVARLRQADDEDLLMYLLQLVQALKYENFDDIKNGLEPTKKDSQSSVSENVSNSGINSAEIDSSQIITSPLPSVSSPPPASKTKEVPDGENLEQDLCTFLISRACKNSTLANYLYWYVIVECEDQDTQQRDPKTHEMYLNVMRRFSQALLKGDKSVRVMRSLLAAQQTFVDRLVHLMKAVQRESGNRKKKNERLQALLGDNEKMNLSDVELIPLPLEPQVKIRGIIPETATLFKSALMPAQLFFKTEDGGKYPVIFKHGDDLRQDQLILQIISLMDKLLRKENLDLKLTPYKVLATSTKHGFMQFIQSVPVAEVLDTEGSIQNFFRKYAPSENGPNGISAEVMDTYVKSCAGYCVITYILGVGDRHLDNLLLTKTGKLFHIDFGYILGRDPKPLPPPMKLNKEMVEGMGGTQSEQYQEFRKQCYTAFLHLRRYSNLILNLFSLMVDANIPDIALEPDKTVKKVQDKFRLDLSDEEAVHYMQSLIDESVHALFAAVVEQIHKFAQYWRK
T2 sequence (Q8NEB9 whole entry): as the sequence (Q8NEB9 whole entry, looked up) above
Sequence of Flag-VPS34, Q8NEB9 (Q8NEB9 whole entry, looked up): as above

B1: purified TRABID (Boston Biochem; E-560) (protein)
chain: MSERGIKWACEYCTYENWPSAIKCTMCRAQRPSGTIITEDPFKSGSSDVGRDWDPSSTEGGSSPLICPDSSARPRVKSSYSMENANKWSCHMCTYLNWPRAIRCTQCLSQRRTRSPTESPQSSGSGSRPVAFSVDPCEEYNDRNKLNTRTQHWTCSVCTYENWAKAKRCVVCDHPRPNNIEAIELAETEEASSIINEQDRARWRGSCSSGNSQRRSPPATKRDSEVKMDFQRIELAGAVGSKEELEVDFKKLKQIKNRMKKTDWLFLNACVGVVEGDLAAIEAYKSSGGDIARQLTADEVRLLNRPSAFDVGYTLVHLAIRFQRQDMLAILLTEVSQQAAKCIPAMVCPELTEQIRREIAASLHQRKGDFACYFLTDLVTFTLPADIEDLPPTVQEKLFDEVLDRDVQKELEEESPIINWSLELATRLDSRLYALWNRTAGDCLLDSVLQATWGIYDKDSVLRKALHDSLHDCSHWFYTRWKDWESWYSQSFGLHFSLREEQWQEDWAFILSLASQPGASLEQTHIFVLAHILRRPIIVYGVKYYKSFRGETLGYTRFQGVYLPLLWEQSFCWKSPIALGYTRGHFSALVAMENDGYGNRGAGANLNTDDDVTITFLPLVDSERKLLHVHFLSAQELGNEEQQEKLLREWLDCCVTEGGVLVAMQKSSRRRNHPLVTQMVEKWLDRYRQIRPCTSLSDGEEDEDDEDE
Turning to B1, the “in vitro deubiquitination assay, Western blot of total and K48 ubiquitin linkages on VPS34 (FIG. 2K)” value in data set [1] is “purified TRABID was capable of reducing the total and K48 ubiquitin linkages from this VPS34 in vitro”.

B2: Flag-TRABID (enzyme)
chain: B1 chain
notes: not shown: Flag tag
On to B2, for which the binding result with Rubicon was “no binding”.

B3: endogenous TRABID (enzyme)
chain: B1 chain
Regarding B3, in the data set with endogenous VPS34, the binding result is “binds”.

B4: HA-UBE3C (protein)
chain: MFSFEGDFKTRPKVSLGGASRKEEKASLLHRTQEERRKREEERRRLKNAIIIQSFIRGYRDRKQQYSIQRSAFDRCATLSQSGGAFPIANGPNLTLLVRQLLFFYKQNEDSKRLIWLYQNLIKHSSLFVKQLDGSERLTCLFQIKRLMSLCCRLLQNCNDDSLNVALPMRMLEVFSSENTYLPVLQDASYVVSVIEQILHYMIHNGYYRSLYLLINSKLPSSIEYSDLSRVPIAKILLENVLKPLHFTYNSCPEGARQQVFTAFTEEFLAAPFTDQIFHFIIPALADAQTVFPYEPFLNALLLIESRCSRKSGGAPWLFYFVLTVGENYLGALSEEGLLVYLRVLQTFLSQLPVSPASASCHDSASDSEEESEEADKPSSPEDGRLSVSYITEECLKKLDTKQQTNTLLNLVWRDSASEEVFTTMASVCHTLMVQHRMMVPKVRLLYSLAFNARFLRHLWFLISSMSTRMITGSMVPLLQVISRGSPMSFEDSSRIIPLFYLFSSLFSHSLISIHDNEFFGDPIEVVGQRQSSMMPFTLEELIMLSRCLRDACLGIIKLAYPETKPEVREEYITAFQSIGVTTSSEMQQCIQMEQKRWIQLFKVITNLVKMLKSRDTRRNFCPPNHWLSEQEDIKADKVTQLYVPASRHVWRFRRMGRIGPLQSTLDVGLESPPLSVSEERQLAVLTELPFVVPFEERVKIFQRLIYADKQEVQGDGPFLDGINVTIRRNYIYEDAYDKLSPENEPDLKKRIRVHLLNAHGLDEAGIDGGGIFREFLNELLKSGFNPNQGFFKTTNEGLLYPNPAAQMLVGDSFARHYYFLGRMLGKALYENMLVELPFAGFFLSKLLGTSADVDIHHLASLDPEVYKNLLFLKSYEDDVEELGLNFTVVNNDLGEAQVVELKFGGKDIPVTSANRIAYIHLVADYRLNRQIRQHCLAFRQGLANVVSLEWLRMFDQQEIQVLISGAQVPISLEDLKSFTNYSGGYSADHPVIKVFWRVVEGFTDEEKRKLLKFVTSCSRPPLLGFKELYPAFCIHNGGSDLERLPTASTCMNLLKLPEFYDETLLRSKLLYAIECAAGFELS
In the case of B4, the “in vitro ubiquitination assay, Western blot of polyubiquitin chain on VPS34 (FIG. 3I)” value in the data set with Flag-VPS34, Q8NEB9 is “baculovirally purified UBE3C could assemble polyubiquitin chain on VPS34 purified from 293T cells”.
